Results reported in patent publication EP4725969A1 (Latticon (Suzhou) Biopharmaceuticals Co., Ltd., dated 2024).
Where a chain is given by its changes, count along the chain named.

B1: Hu2126-H2K1-L71-H72b-Mu10 (antibody, IgG1, V domains shown)
VH: QVQLVQSGSELKKPGASVKVSCKASGYTFTDYSMHWVRQAPGQGLEWMGWINTGTGEPTYADDFKGRFTISRDTSKSTAYLQISSLKAEDTAVYYCVRVGRYDYAMDYWGQGTTVTVSS
VL: DIQMTQSPSSLSASVGDRVTITCRASQDVYTAVAWYQQKPGKAPKLLINAASSRPTGVPSRFSGSGSGTDFTLTISSLQPEDFATYYCQQYYSTPPTFGGGTKVEIK
notes: IgG1/Cκ; also called 7172b-Mu10
B2: Hu2126-H2K1-L71-H72b-Mu14 (antibody, IgG1, V domains shown)
VH: B1 VH
VL: B1 VL with A50L
notes: IgG1/Cκ; also called 7172b-Mu14; Hu2126-7172b-Mu14
B3: Hu2126-H2K1-L71-H72b-Mu11 (antibody, IgG1, V domains shown)
VH: B1 VH
VL: B1 VL with A50D
notes: IgG1/Cκ; also called 7172b-Mu11
B4: Hu2126-H2K1-L71-H72b-Mu15 (antibody, IgG1, V domains shown)
VH: B1 VH
VL: B1 VL with A50Q
notes: IgG1/Cκ; also called 7172b-Mu15
B5: Hu2126-H2K1-L71-H72b-Mu16 (antibody, IgG1, V domains shown)
VH: B1 VH
VL: B1 VL with A50R
notes: IgG1/Cκ; also called 7172b-Mu16
B6: Hu2126-H2K1-L71-H72b-Mu13 (antibody, IgG1, V domains shown)
VH: B1 VH
VL: B1 VL with A50K
notes: IgG1/Cκ; also called 7172b-Mu13
B7: Hu2126-H2K1-L71-H72b-Mu12 (antibody, IgG1, V domains shown)
VH: B1 VH
VL: B1 VL with A50E
notes: IgG1/Cκ; also called 7172b-Mu12
B8: Hu2117HK-Mu09 (Fc fusion)
scFv: EVQLVESGGGLVQPGGSLRLSCAASGFTYSSYGMSWVRQAPGKGLEWVASISGGGSYTKYGDSVKGRFTISRDNSKNTLYLQMNSLRAEDTAVYYCARDYAGFFDVWGQGTLVTVSSGGGGSGGGGSGGGGSDIQMTQSPSSLSASVGDRVTITCRSSQSLVHSNGNTYLHWYQQKPGKAPKLLIYKVSNRFSGVPSRFSGSGSGTDFTLTISSLQPEDFATYFCSQSTHVPYTFGQGTKVEIK
notes: scFv-hIgG1 Fc; not shown: human IgG1 Fc
B9: Hu2117HK-Mu17 (Fc fusion, name in Kabat numbering)
scFv: B8 scFv with G61P, N165I
notes: as for B8
B10: Hu2117HK-Mu24 (Fc fusion)
scFv: B8 scFv with G61P, G166I
notes: as for B8
B11: Hu2117HK-Mu23 (Fc fusion)
scFv: B8 scFv with G61P, G166A
notes: as for B8
B12: Hu2117HK-Mu50 (Fc fusion)
scFv: B8 scFv with G61P, A101V
notes: as for B8
B13: Hu2117HK-Mu39 (Fc fusion)
scFv: B8 scFv with S31N, G61P
notes: as for B8
B14: Hu2117HK-Mu25 (Fc fusion)
scFv: B8 scFv with G61P, G166S
notes: as for B8
B15: Hu2117HK-Mu35 (Fc fusion, name in Kabat numbering)
scFv: B8 scFv with G61P, S226L
notes: as for B8
B16: Hu2117HK-Mu49 (Fc fusion)
scFv: B8 scFv with G61P, A101S
notes: as for B8
B17: Hu2117HK-Mu27 (Fc fusion)
scFv: B8 scFv with G61P, G166R
notes: as for B8
B18: Hu2117HK-Mu19 (Fc fusion, name in Kabat numbering)
scFv: B8 scFv with G61P, N165Q
notes: as for B8
B19: Hu2117HK-Mu18 (Fc fusion, name in Kabat numbering)
scFv: B8 scFv with G61P, N165L
notes: as for B8
B20: Hu2117HK-Mu38 (Fc fusion)
scFv: B8 scFv with S30N, S31N, G61P
notes: as for B8
B21: Hu2117HK-Mu28 (Fc fusion)
scFv: B8 scFv with G61P, G166T
notes: as for B8
B22: Hu2117HK-Mu32 (Fc fusion)
scFv: B8 scFv with G61P, H163S
notes: as for B8
B23: Hu2117HK-Mu11 (Fc fusion)
scFv: B8 scFv with G61P, F192D
notes: as for B8
B24: Hu2117HK-Mu30 (Fc fusion, not shown: a dimerising Fc or GST; small tags and cut ends)
scFv: B8 scFv with G61P, H163D
notes: scFv-hIgG1 Fc
B25: Hu2117HK-Mu46 (Fc fusion)
scFv: B8 scFv with G61P, A101N
notes: as for B8
B26: Hu2117HK-Mu21 (Fc fusion, name in Kabat numbering)
scFv: B8 scFv with G61P, N165T
notes: as for B8
B27: Hu2117HK-Mu20 (Fc fusion, name in Kabat numbering)
scFv: B8 scFv with G61P, N165S
notes: as for B8
B28: Hu2117HK-Mu44 (Fc fusion, name in Kabat numbering)
scFv: B8 scFv with G61P, A101E
notes: as for B8
B29: Hu2117HK-Mu10 (Fc fusion)
scFv: B8 scFv with G61V
notes: as for B8
B30: Hu2117HK-Mu14 (Fc fusion)
scFv: B8 scFv with G61P, D62G
notes: as for B8
B31: Hu2117HK-Mu12 (Fc fusion)
scFv: B8 scFv with G61P, F192P
notes: as for B8
B32: Hu2117HK-Mu29 (Fc fusion)
scFv: B8 scFv with G61P, V162L
notes: as for B8
B33: Hu2117HK-Mu16 (Fc fusion, name in Kabat numbering)
scFv: B8 scFv with G61P, N165G
notes: as for B8
B34: Hu2117HK-Mu34 (Fc fusion)
scFv: B8 scFv with G61P, S226Q
notes: as for B8
B35: Hu2117HK-Mu40 (Fc fusion)
scFv: B8 scFv with S31D, G61P
notes: as for B8
B36: Hu2117HK-Mu41 (Fc fusion)
scFv: B8 scFv with S56N, T58A, G61P
notes: as for B8
B37: Hu2117HK-Mu47 (Fc fusion, name in Kabat numbering)
scFv: B8 scFv with G61P, A101Q
notes: as for B8
B38: Hu2117HK-Mu42 (Fc fusion)
scFv: B8 scFv with G54S, G61P
notes: as for B8
B39: Hu2117HK-Mu22 (Fc fusion, name in Kabat numbering)
scFv: B8 scFv with G61P, N165V
notes: as for B8
B40: Hu2117HK-Mu43 (Fc fusion, name in Kabat numbering)
scFv: B8 scFv with G61P, A101D
notes: as for B8
B41: Hu2117HK-Mu45 (Fc fusion)
scFv: B8 scFv with G61P, A101I
notes: as for B8
B42: Hu2117HK-Mu48 (Fc fusion)
scFv: B8 scFv with G61P, A101R
notes: as for B8
B43: Hu2117HK-Mu36 (Fc fusion, name in Kabat numbering)
scFv: B8 scFv with G61P, S226M
notes: as for B8
B44: Hu2117HK-Mu13 (Fc fusion)
scFv: B8 scFv with G61P, F224Y
notes: scFv-hIgG1 Fc; also called Hu2117HK-Mul3; not shown: human IgG1 Fc

Target: T1, recombinant human HER2 extracellular domain protein (human, UniProt P04626 23-652)
T1 construct: range 23-652; Range is printed for the immunogen/panning protein; also called ErbB2; recombinant HER2 protein
Assay: BLI, Protein A capture

Row | Binder | Kd | koff | kon
1 | B1 | 3.38 nM | 0.000356 s⁻¹ | 105000 M⁻¹ s⁻¹
2 | B2 | 0.825 nM | 8.31e-05 s⁻¹ | 101000 M⁻¹ s⁻¹
3 | B3 | 5.35 nM | 0.000482 s⁻¹ | 90100 M⁻¹ s⁻¹
4 | B4 | 4.49 nM |  | 106000 M⁻¹ s⁻¹
5 | B5 | 5.77 nM | 0.000578 s⁻¹ | 100000 M⁻¹ s⁻¹
6 | B6 | 7.23 nM | 0.000707 s⁻¹ | 97800 M⁻¹ s⁻¹
7 | B7 | 6.74 nM |  | 78300 M⁻¹ s⁻¹

Target: T1, recombinant human HER2 extracellular …
Assay: BLI, Protein A capture
Remark: another data set of the same source

Row | Binder | Kd | koff | kon
8 | B8 | 6.38 nM | 0.000468 s⁻¹ | 73400 M⁻¹ s⁻¹
9 | B9 | 14.9 nM | 0.000738 s⁻¹ | 49500 M⁻¹ s⁻¹
10 | B10 | 6.65 nM | 0.000423 s⁻¹ | 63700 M⁻¹ s⁻¹
11 | B11 | 6.67 nM | 0.000542 s⁻¹ | 81200 M⁻¹ s⁻¹
12 | B12 | 16 nM | 0.0016 s⁻¹ | 100000 M⁻¹ s⁻¹
13 | B13 | 12.3 nM | 0.0012 s⁻¹ | 97700 M⁻¹ s⁻¹
14 | B14 | 6.73 nM | 0.00056 s⁻¹ | 83100 M⁻¹ s⁻¹
15 | B15 | 59.8 nM | 0.0037 s⁻¹ | 61900 M⁻¹ s⁻¹
16 | B16 | 11.8 nM | 0.000761 s⁻¹ | 64500 M⁻¹ s⁻¹
17 | B17 | 7.38 nM | 0.000592 s⁻¹ | 80200 M⁻¹ s⁻¹
18 | B18 | 13.9 nM | 0.000837 s⁻¹ | 60100 M⁻¹ s⁻¹
19 | B19 | 11.4 nM | 0.000483 s⁻¹ | 42600 M⁻¹ s⁻¹
20 | B20 | 12.1 nM | 0.00121 s⁻¹ | 100000 M⁻¹ s⁻¹
21 | B21 | 7.15 nM | 0.000592 s⁻¹ | 82800 M⁻¹ s⁻¹
22 | B22 | 6.09 nM | 0.000366 s⁻¹ | 60100 M⁻¹ s⁻¹
23 | B23 | 9.41 nM | 0.000803 s⁻¹ | 85400 M⁻¹ s⁻¹
24 | B24 | 8.27 nM | 0.000301 s⁻¹ | 36400 M⁻¹ s⁻¹
25 | B25 | 10.3 nM | 0.000794 s⁻¹ | 77400 M⁻¹ s⁻¹
26 | B26 | 12 nM | 0.00056 s⁻¹ | 46800 M⁻¹ s⁻¹

Row | Binder | Kd | koff | kon
27 | B27 | 13.3 nM | 0.000616 s⁻¹ | 46500 M⁻¹ s⁻¹
28 | B28 | 42.5 nM | 0.0034 s⁻¹ | 80000 M⁻¹ s⁻¹
29 | B29 | 7.05 nM | 0.000546 s⁻¹ | 77400 M⁻¹ s⁻¹
30 | B30 | 7.16 nM | 0.000624 s⁻¹ | 87200 M⁻¹ s⁻¹
31 | B31 | 6.4 nM | 0.000453 s⁻¹ | 70800 M⁻¹ s⁻¹
32 | B32 | 7.62 nM | 0.000668 s⁻¹ | 87700 M⁻¹ s⁻¹
33 | B33 | 8.76 nM | 0.00051 s⁻¹ | 58200 M⁻¹ s⁻¹
34 | B34 | 12.6 nM | 0.00117 s⁻¹ | 93500 M⁻¹ s⁻¹
35 | B35 | 11.9 nM | 0.000867 s⁻¹ | 72700 M⁻¹ s⁻¹
36 | B36 | 9.66 nM | 0.000603 s⁻¹ | 62400 M⁻¹ s⁻¹
37 | B37 | 15.3 nM | 0.000828 s⁻¹ | 54300 M⁻¹ s⁻¹
38 | B38 | 33.5 nM | 0.00178 s⁻¹ | 53000 M⁻¹ s⁻¹
39 | B39 | 13.4 nM | 0.00059 s⁻¹ | 43900 M⁻¹ s⁻¹
40 | B40 | 56.7 nM | 0.00406 s⁻¹ | 71700 M⁻¹ s⁻¹
41 | B41 | 12.8 nM | 0.00126 s⁻¹ | 98000 M⁻¹ s⁻¹
42 | B42 | 12.1 nM | 0.00118 s⁻¹ | 97900 M⁻¹ s⁻¹
43 | B43 | 31.4 nM | 0.00198 s⁻¹ | 63200 M⁻¹ s⁻¹
44 | B44 | 6.05 nM | 0.000484 s⁻¹ | 80100 M⁻¹ s⁻¹
